These results are taken from patent publication US20110287458A1 (TEXAS A AND M UNIVERSITY SYSTEM, published 2011).

This data set concerns the molecule itself. Briefly: native PAGE, self-association. The protocol: Native polyacrylamide gel electrophoresis (PAGE) was performed by use of the MINI PROTEAN® 3 electrophoresis cell and a discontinuous buffer system (Ornstein-Davis) according to the standard procedures given by the manufacturer (Bio-Rad Laboratories). Using native PAGE, pure canine S100A12 was evaluated in the presence of 0.3 mM Ca²⁺, 3 mM Ca²⁺, 10 mM Ca²⁺, and 10 mM EGTA.

B1: canine S100A12 (other)
chain: TKLEDHLEGIVDVFHRYSARVGHPDTLSKGEMKQLIIRELPNTLKNTKDQATVDKLFQDLDADKDGQVNFNEFISLVSVVLDTSHKNTHK
notes: Purified from canine leukocytes; Runs as a non-covalent homodimer on native PAGE; In the RIA the tracer is 125I-labelled; In serum and fecal extracts it is the native protein; also called calgranulin C; EN-RAGE
For the protein B1, the binding result is recorded as “binds”.
